Assay results: patent publication US20230048960A1 (University of Washington, published 2023)
Square brackets hold non-standard residues; d marks the D form. dNle = CCCC[C@@H](N)C(=O)O; Nle = CCCC[C@H](N)C(=O)O

Target: Aβ42 (UniProt P05067 672-713)
Experiment: cell-based or functional assay

Aβ42, sequence (P05067 672-713 limits assumed): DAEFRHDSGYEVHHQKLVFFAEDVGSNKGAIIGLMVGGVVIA

| Binder | % inhibition of fibril formation (ThT), AP:Aβ42 1:1 | % inhibition of fibril formation (ThT), AP:Aβ42 1:10 | % inhibition of fibril formation (ThT), AP:Aβ42 1:100 |
| --- | --- | --- | --- |
| Ac-[dR]G[dE]M[dN]L[dS]W[dM][dN][dE][dY][dS]G[dW]T[dM]N[dC]K[dM]G[dR]-NH2 (also: homodimer: D-Cys19 disulfide-bonded to D-Cys19 of other copy) [AP526d] | 100% | 88.6% | 62.4% |
| Ac-RGN[dW]N[dE]S[dK]MNEYYGW[dM]L[dM]C[dT]MGR-NH2 (SMILES CSCC[C@H](NC(=O)[C@@H](CCCCN)NC(=O)[C@H](CO)NC(=O)[C@@H](CCC(=O)O)NC(=O)[C@H](CC(N)=O)NC(=O)[C@@H](Cc1c[nH]c2ccccc12)NC(=O)[C@H](CC(N)=O)NC(=O)CNC(=O)[C@H](CCCNC(=N)N)NC(C)=O)C(=O)N[C@@H](CC(N)=O)C(=O)N[C@@H](CCC(=O)O)C(=O)N[C@@H](Cc1ccc(O)cc1)C(=O)N[C@@H](Cc1ccc(O)cc1)C(=O)NCC(=O)N[C@@H](Cc1c[nH]c2ccccc12)C(=O)N[C@H](CCSC)C(=O)N[C@@H](CC(C)C)C(=O)N[C@H](CCSC)C(=O)N[C@@H](CS)C(=O)N[C@@H](C(=O)N[C@@H](CCSC)C(=O)NCC(=O)N[C@@H](CCCNC(=N)N)C(N)=O)[C@H](C)O) [AP501m] | 29.2% | 0% | 0% |
| Ac-RGN[dW]N[dE]S[dK]MNEYSGW[dM]L[dM]C[dT]MGR-NH2 (also: disulfide-linked homodimer via Cys19) [AP500d] | 100% | 100% | 72.2% |
| Ac-RGE[dC]N[dY]F[dW]MNEYYGW[dT]M[dN]M[dR][Nle]GK-NH2 (also: disulfide-linked homodimer via Cys4) [AP531d] | 92.6% | 78.6% | 38.5% |
| Ac-RGE[dC]N[dY]F[dW]MNEYYGW[dT]M[dN]M[dR][Nle]GK-NH2 (SMILES CCCC[C@H](NC(=O)[C@@H](CCCNC(=N)N)NC(=O)[C@H](CCSC)NC(=O)[C@@H](CC(N)=O)NC(=O)[C@H](CCSC)NC(=O)[C@H](NC(=O)[C@H](Cc1c[nH]c2ccccc12)NC(=O)CNC(=O)[C@H](Cc1ccc(O)cc1)NC(=O)[C@H](Cc1ccc(O)cc1)NC(=O)[C@H](CCC(=O)O)NC(=O)[C@H](CC(N)=O)NC(=O)[C@H](CCSC)NC(=O)[C@@H](Cc1c[nH]c2ccccc12)NC(=O)[C@H](Cc1ccccc1)NC(=O)[C@@H](Cc1ccc(O)cc1)NC(=O)[C@H](CC(N)=O)NC(=O)[C@@H](CS)NC(=O)[C@H](CCC(=O)O)NC(=O)CNC(=O)[C@H](CCCNC(=N)N)NC(C)=O)[C@H](C)O)C(=O)NCC(=O)N[C@@H](CCCCN)C(N)=O) [AP531m] | 37.2% | 9.1% | 0% |
| Ac-RGE[dC]N[dY]F[dW]MNEYYGW[dT]M[dN]M[dR]MGK-NH2 (SMILES CSCC[C@H](NC(=O)[C@@H](CCCNC(=N)N)NC(=O)[C@H](CCSC)NC(=O)[C@@H](CC(N)=O)NC(=O)[C@H](CCSC)NC(=O)[C@H](NC(=O)[C@H](Cc1c[nH]c2ccccc12)NC(=O)CNC(=O)[C@H](Cc1ccc(O)cc1)NC(=O)[C@H](Cc1ccc(O)cc1)NC(=O)[C@H](CCC(=O)O)NC(=O)[C@H](CC(N)=O)NC(=O)[C@H](CCSC)NC(=O)[C@@H](Cc1c[nH]c2ccccc12)NC(=O)[C@H](Cc1ccccc1)NC(=O)[C@@H](Cc1ccc(O)cc1)NC(=O)[C@H](CC(N)=O)NC(=O)[C@@H](CS)NC(=O)[C@H](CCC(=O)O)NC(=O)CNC(=O)[C@H](CCCNC(=N)N)NC(C)=O)[C@H](C)O)C(=O)NCC(=O)N[C@@H](CCCCN)C(N)=O) [AP530m] | 78.2% | 31.6% | 0% |

The next lines start with the values.

| % inhibition of fibril formation (ThT), AP:Aβ42 1:1 | % inhibition of fibril formation (ThT), AP:Aβ42 1:10 | % inhibition of fibril formation (ThT), AP:Aβ42 1:100 | Binder |
| --- | --- | --- | --- |
| 62.3% | 31.3% | 0% | Ac-RGE[dY]N[dC]F[dW]MNEYYGW[dT]M[dN]M[dR]MGK-NH2 (SMILES CSCC[C@H](NC(=O)[C@@H](CCCNC(=N)N)NC(=O)[C@H](CCSC)NC(=O)[C@@H](CC(N)=O)NC(=O)[C@H](CCSC)NC(=O)[C@H](NC(=O)[C@H](Cc1c[nH]c2ccccc12)NC(=O)CNC(=O)[C@H](Cc1ccc(O)cc1)NC(=O)[C@H](Cc1ccc(O)cc1)NC(=O)[C@H](CCC(=O)O)NC(=O)[C@H](CC(N)=O)NC(=O)[C@H](CCSC)NC(=O)[C@@H](Cc1c[nH]c2ccccc12)NC(=O)[C@H](Cc1ccccc1)NC(=O)[C@@H](CS)NC(=O)[C@H](CC(N)=O)NC(=O)[C@@H](Cc1ccc(O)cc1)NC(=O)[C@H](CCC(=O)O)NC(=O)CNC(=O)[C@H](CCCNC(=N)N)NC(C)=O)[C@H](C)O)C(=O)NCC(=O)N[C@@H](CCCCN)C(N)=O) [AP535m] |
| 100% | 98.2% | 53.7% | Ac-RGE[dY]N[dC]F[dW]MNEYYGW[dT]M[dN]M[dR]MGK-NH2 (also: homodimer: D-Cys6 disulfide-bonded to D-Cys6 of other copy) [AP535d] |
| 85.2% | 68.2% | 51.4% | Ac-RGE[dNle]N[dY]F[dW]MNEYYGW[dT]M[dN]M[dR]CGK-NH2 (also: disulfide-linked homodimer via Cys21) [AP533d] |
| 94.2% | 75.4% | 64.3% | Ac-RGE[dM]C[dY]F[dW]MNEYYGW[dT]M[dN]M[dR][Nle]GK-NH2 (also: disulfide-linked homodimer via Cys5) [AP532d] |
| 40.2% | 11.2% | 0% | Ac-RGE[dNle]N[dY]F[dW]MNEYYGW[dT]M[dN]M[dC]RGK-NH2 (SMILES CCCC[C@@H](NC(=O)[C@H](CCC(=O)O)NC(=O)CNC(=O)[C@H](CCCNC(=N)N)NC(C)=O)C(=O)N[C@@H](CC(N)=O)C(=O)N[C@H](Cc1ccc(O)cc1)C(=O)N[C@@H](Cc1ccccc1)C(=O)N[C@H](Cc1c[nH]c2ccccc12)C(=O)N[C@@H](CCSC)C(=O)N[C@@H](CC(N)=O)C(=O)N[C@@H](CCC(=O)O)C(=O)N[C@@H](Cc1ccc(O)cc1)C(=O)N[C@@H](Cc1ccc(O)cc1)C(=O)NCC(=O)N[C@@H](Cc1c[nH]c2ccccc12)C(=O)N[C@@H](C(=O)N[C@@H](CCSC)C(=O)N[C@H](CC(N)=O)C(=O)N[C@@H](CCSC)C(=O)N[C@H](CS)C(=O)N[C@@H](CCCNC(=N)N)C(=O)NCC(=O)N[C@@H](CCCCN)C(N)=O)[C@H](C)O) [AP534m] |
| 40.3% | 0% | 0% | Ac-RGE[dNle]N[dY]F[dW]MNEYYGW[dT]M[dN]M[dR]CGK-NH2 (SMILES CCCC[C@@H](NC(=O)[C@H](CCC(=O)O)NC(=O)CNC(=O)[C@H](CCCNC(=N)N)NC(C)=O)C(=O)N[C@@H](CC(N)=O)C(=O)N[C@H](Cc1ccc(O)cc1)C(=O)N[C@@H](Cc1ccccc1)C(=O)N[C@H](Cc1c[nH]c2ccccc12)C(=O)N[C@@H](CCSC)C(=O)N[C@@H](CC(N)=O)C(=O)N[C@@H](CCC(=O)O)C(=O)N[C@@H](Cc1ccc(O)cc1)C(=O)N[C@@H](Cc1ccc(O)cc1)C(=O)NCC(=O)N[C@@H](Cc1c[nH]c2ccccc12)C(=O)N[C@@H](C(=O)N[C@@H](CCSC)C(=O)N[C@H](CC(N)=O)C(=O)N[C@@H](CCSC)C(=O)N[C@H](CCCNC(=N)N)C(=O)N[C@@H](CS)C(=O)NCC(=O)N[C@@H](CCCCN)C(N)=O)[C@H](C)O) [AP533m] |
| 100% | 92.2% | 51.3% | Ac-RGE[dNle]N[dY]F[dW]MNEYYGW[dT]M[dN]M[dC]RGK-NH2 (also: disulfide-linked homodimer via Cys20) [AP534d] |
| 62.1% | 0% | 0% | Ac-RGE[dM]C[dY]F[dW]MNEYYGW[dT]M[dN]M[dR][Nle]GK-NH2 (SMILES CCCC[C@H](NC(=O)[C@@H](CCCNC(=N)N)NC(=O)[C@H](CCSC)NC(=O)[C@@H](CC(N)=O)NC(=O)[C@H](CCSC)NC(=O)[C@H](NC(=O)[C@H](Cc1c[nH]c2ccccc12)NC(=O)CNC(=O)[C@H](Cc1ccc(O)cc1)NC(=O)[C@H](Cc1ccc(O)cc1)NC(=O)[C@H](CCC(=O)O)NC(=O)[C@H](CC(N)=O)NC(=O)[C@H](CCSC)NC(=O)[C@@H](Cc1c[nH]c2ccccc12)NC(=O)[C@H](Cc1ccccc1)NC(=O)[C@@H](Cc1ccc(O)cc1)NC(=O)[C@H](CS)NC(=O)[C@@H](CCSC)NC(=O)[C@H](CCC(=O)O)NC(=O)CNC(=O)[C@H](CCCNC(=N)N)NC(C)=O)[C@H](C)O)C(=O)NCC(=O)N[C@@H](CCCCN)C(N)=O) [AP532m] |
